“And” between values parts separate entries of the source, which are not always exact repeats. Equal entries are not always repeated.

First the molecules themselves.
B1: Pgant35a #3 RNA (ssRNA)
RNA: GUCAUUGGUGCACGCGAGGCCGUGGGCGAUGUGCUCGUCUUCCUCGACUCGCAUAUCGAGGUCAAUCAGCAGUGGCUGGAGCCGCUGCUGCGCCUCAUCA
B2: Hsp70Aa dsDNA (dsDNA)
DNA 1: not shown
DNA 2: not shown
B3: Hsp70Aa dsRNA (dsRNA)
RNA 1: not shown
RNA 2: not shown
B4: Pgant35a #2 RNA (ssRNA)
RNA: UCUUCCGGGCGAUCCCAGACACUCGGCACAAGGUGUGCGAUCGCCAGGAGACCACGGAAGCGGAAAAUCUGCCCCAGGCCUCCAUAGUCAUGUGCUUCUA
B5: Pgant35a #1 RNA (ssRNA)
RNA: UCGGCAGGAUGGAGGAUCGACGAAGGGAACGCAACGCCACGGGCCGAGCUGAGCUACCAGGCCAGGGUCACCGUCGGAUGCACUCCAAAUGCCAGCAUUA
B6: Pgant35a #4 RNA (ssRNA)
RNA: CUGCAUGUGCCGGGCGAGGAGUCCAAGAAGUCGGCGGCAGCGCCCAUCUUUCAGCCUUGGCACUCGCGAAAACGUAACUAUGUCGACACAUUCCAGCUGC
B7: Hsp70Aa #5 RNA (ssRNA)
RNA: GCAGGCCGAGAUUGAUCGCAUGGUGAACGAGGCUGAAAAGUACGCCGACGAGGACGAGAAGCAUCGCCAGCGAAUAACCUCUAGAAAUGCCCUGGAGAGC
B8: Hsp70Aa #2 RNA (ssRNA)
RNA: GAGGACAUGAAGCACUGGCCUUUCAAGGUUGUAAGCGACGGCGGAAAGCCCAAGAUCGGGGUGGAGUAUAAGGGUGAGUCCAAGAGAUUUGCCCCCGAGG
B9: Pgant35a #5 RNA (ssRNA)
RNA: AAGUGCCACGAGAUGCUCGGCGAUCAGCAGUGGCGGCACACCCGCAACGCCAACAGUCCCGUCUACAACAUGGCCAAAGGCACCUGCCUCCGGGCAGCUG
B10: Hsp70Aa #1 RNA (ssRNA)
RNA: CUCACACACAAUGCCUGCUAUUGGAAUCGAUCUGGGCACCACCUACUCCUGCGUGGGUGUCUACCAACAUGGCAAGGUGGAGAUUAUCGCCAACGACCAG

In the first data set the target is T1, dMi-2 WT (UniProt O97159 1-1982). Nature of the data set: EMSA. (In EMSA bound probe runs differently from free probe, usually more slowly.)
T1 sequence (O97159 whole entry): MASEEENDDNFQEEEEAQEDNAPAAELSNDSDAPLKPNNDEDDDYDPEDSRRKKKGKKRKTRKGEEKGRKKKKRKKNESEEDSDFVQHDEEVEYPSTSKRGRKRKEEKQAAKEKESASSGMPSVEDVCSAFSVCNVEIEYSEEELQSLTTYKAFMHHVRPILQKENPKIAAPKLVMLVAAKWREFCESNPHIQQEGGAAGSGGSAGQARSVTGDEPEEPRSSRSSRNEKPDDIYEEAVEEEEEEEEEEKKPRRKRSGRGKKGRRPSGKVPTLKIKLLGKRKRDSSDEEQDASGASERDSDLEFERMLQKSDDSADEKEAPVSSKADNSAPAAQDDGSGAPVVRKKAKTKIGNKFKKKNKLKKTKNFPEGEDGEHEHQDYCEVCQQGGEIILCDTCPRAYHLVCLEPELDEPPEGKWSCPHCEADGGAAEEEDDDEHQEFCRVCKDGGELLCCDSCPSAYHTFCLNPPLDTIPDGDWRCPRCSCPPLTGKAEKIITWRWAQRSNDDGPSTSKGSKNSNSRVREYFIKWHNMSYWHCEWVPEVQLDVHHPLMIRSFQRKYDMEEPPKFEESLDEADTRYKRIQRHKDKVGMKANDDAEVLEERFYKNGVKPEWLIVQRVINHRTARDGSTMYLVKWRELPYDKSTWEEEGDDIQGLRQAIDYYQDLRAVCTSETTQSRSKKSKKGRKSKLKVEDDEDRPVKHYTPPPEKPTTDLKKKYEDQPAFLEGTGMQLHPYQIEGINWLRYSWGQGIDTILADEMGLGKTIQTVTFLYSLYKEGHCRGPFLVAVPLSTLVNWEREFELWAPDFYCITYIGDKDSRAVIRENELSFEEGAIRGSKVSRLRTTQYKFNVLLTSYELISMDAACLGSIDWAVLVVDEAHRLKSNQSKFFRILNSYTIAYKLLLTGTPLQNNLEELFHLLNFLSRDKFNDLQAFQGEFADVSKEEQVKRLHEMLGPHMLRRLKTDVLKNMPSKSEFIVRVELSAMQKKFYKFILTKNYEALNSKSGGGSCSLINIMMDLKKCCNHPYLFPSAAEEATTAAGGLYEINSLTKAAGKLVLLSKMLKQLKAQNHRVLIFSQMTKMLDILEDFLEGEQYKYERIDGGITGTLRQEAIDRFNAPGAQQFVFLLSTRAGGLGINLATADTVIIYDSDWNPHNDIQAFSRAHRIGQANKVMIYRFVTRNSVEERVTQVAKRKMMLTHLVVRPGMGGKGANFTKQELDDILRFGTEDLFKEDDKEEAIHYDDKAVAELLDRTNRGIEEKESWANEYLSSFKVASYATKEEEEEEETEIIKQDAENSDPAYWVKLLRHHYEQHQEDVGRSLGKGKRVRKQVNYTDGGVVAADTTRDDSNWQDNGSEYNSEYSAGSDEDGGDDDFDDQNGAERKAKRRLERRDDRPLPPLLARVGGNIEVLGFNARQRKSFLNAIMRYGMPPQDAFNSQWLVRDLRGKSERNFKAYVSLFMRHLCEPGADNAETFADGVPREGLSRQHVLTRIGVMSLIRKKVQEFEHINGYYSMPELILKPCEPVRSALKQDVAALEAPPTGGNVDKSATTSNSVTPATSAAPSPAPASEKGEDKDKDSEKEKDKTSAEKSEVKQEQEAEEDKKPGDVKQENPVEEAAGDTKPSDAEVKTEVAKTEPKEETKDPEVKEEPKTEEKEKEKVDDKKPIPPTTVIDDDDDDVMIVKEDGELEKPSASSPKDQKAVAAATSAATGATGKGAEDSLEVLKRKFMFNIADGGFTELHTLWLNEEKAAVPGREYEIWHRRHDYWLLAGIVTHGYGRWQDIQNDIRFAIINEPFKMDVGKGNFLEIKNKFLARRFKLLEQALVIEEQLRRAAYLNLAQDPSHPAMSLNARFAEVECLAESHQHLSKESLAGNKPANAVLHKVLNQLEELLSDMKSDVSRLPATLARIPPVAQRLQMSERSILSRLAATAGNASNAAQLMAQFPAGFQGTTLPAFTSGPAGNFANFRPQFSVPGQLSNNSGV
Regarding B1, the Kd – broadly, the equilibrium constant for the complex coming apart – came out at 630 ± 280 nM.
The molecule AAAAAAGGGGAAAAGGGGAAAAGGGGAAAAGGGGAAAAAA (structured_RNA) [(G4A4)4 RNA] yielded a Kd of 80 nM.
The molecule B2 came in with a Kd of 820 ± 100 nM.
As for CCUACGGACUGGACAAGAACCUCAAGGGUGAGCGCAAUGU (ssRNA) [Hsp70Aa #6 RNA], the Kd came to 310 ± 100 nM.
With B3, the Kd stood at 860 ± 100 nM.
Take GAGAGAGAGAGAGAGAGAGAGAGAGAGAGAGAGAGAGAGA (ssRNA) [(GA)20 RNA]: the Kd was 70 nM and 80 nM.

The target of a further data set is T2, dMi-2 (118-238) (UniProt O97159 118-238).
T2 sequence: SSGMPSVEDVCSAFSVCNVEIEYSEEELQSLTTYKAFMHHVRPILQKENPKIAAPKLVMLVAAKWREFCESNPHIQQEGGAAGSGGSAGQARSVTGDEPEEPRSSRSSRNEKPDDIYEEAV
Nature of the data set: EMSA.
With CCUACGGACUGGACAAGAACCUCAAGGGUGAGCGCAAUGU (ssRNA) [Hsp70Aa #6 RNA], the binding result is given as “no binding”.

In another data set the target is T1, dMi-2 WT. Nature of the data set: EMSA. The source holds these as a separate data set.
Take B4: the binding result is listed as “binds”.
Regarding B5, the binding result was “binds”.
With B6, the binding result is listed as “binds”.
On to B7, for which the binding result is “binds”.
Turning to B8, the binding result is “binds”.
As for B9, the binding result was “binds”.
For B10, the binding result is “binds”.

For the origin of these results see publication doi:10.1101/2021.06.03.446896.
